The values that follow come from paper PMC4243239 (Nature communications, 2014).

The data set “SEC-MALS” deals with the molecule itself. As to the kind of experiment: SEC-MALS. (In general: Size exclusion chromatography separates by hydrodynamic size, large species first.)
The target of data set [1] is T1, B. subtilis FtsZ, untagged (B. subtilis, UniProt P17865 1-382).
T1 sequence: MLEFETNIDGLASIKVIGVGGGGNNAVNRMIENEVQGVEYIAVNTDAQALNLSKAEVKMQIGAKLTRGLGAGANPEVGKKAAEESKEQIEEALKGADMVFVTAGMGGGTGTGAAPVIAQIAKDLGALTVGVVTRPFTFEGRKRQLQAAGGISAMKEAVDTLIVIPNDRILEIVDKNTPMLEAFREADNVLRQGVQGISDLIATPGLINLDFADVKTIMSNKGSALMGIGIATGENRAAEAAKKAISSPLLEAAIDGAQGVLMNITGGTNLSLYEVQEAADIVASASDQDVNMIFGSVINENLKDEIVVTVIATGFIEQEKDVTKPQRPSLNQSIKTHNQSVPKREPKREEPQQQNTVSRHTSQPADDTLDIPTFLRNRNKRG
As to the kind of experiment: SPR.

The data set “crystal structure” deals with the molecule itself. As to the kind of experiment: crystal structure.
Data set [2] addresses T2, B. subtilis FtsZ with a 15-residue recombinant N-terminal T7 epitope tag (B. subtilis, UniProt P17865 1-382).
T2 sequence (looked up): T1 sequence
As to the kind of experiment: cross-linking.

B1: BsEzrA_(22–217), spectrin repeats one and two of B. subtilis EzrA (domain or fragment, UniProt O34894 22-217, looked up)
chain: RKKIYAEIDRLESWKIEILNRSIVEEMSKIKHLKMTGQTEEFFEKWREEWDEIVTAHMPKVEELLYDAEENADKYRFKKANQVLVHIDDLLTAAESSIEKILREISDLVTSEEKSREEIEQVRERYSKSRKNLLAYSHLYGELYDSLEKDLDEIWSGIKQFEEETEGGNYITARKVLLEQDRNLERLQSYIDDVPK
For orientation: Kd means the constant that tells how readily two partners part at equilibrium. Low readings indicate tighter binding, high ones weaker binding. On to B1, for which, in “SEC-MALS”, the binding result is recorded as “binds”. The Kd in data set [1] turned out to be 13.7 ± 1.5 µM.

B2: B. subtilis EzrA cytoplasmic domain lacking the N-terminal 21 residue trans-membrane helix, BsEzrA_(22-562) (domain or fragment, UniProt O34894 22-562, looked up)
chain: RKKIYAEIDRLESWKIEILNRSIVEEMSKIKHLKMTGQTEEFFEKWREEWDEIVTAHMPKVEELLYDAEENADKYRFKKANQVLVHIDDLLTAAESSIEKILREISDLVTSEEKSREEIEQVRERYSKSRKNLLAYSHLYGELYDSLEKDLDEIWSGIKQFEEETEGGNYITARKVLLEQDRNLERLQSYIDDVPKLLADCKQTVPGQIAKLKDGYGEMKEKGYKLEHIQLDKELENLSNQLKRAEHVLMTELDIDEASAILQLIDENIQSVYQQLEGEVEAGQSVLSKMPELIIAYDKLKEEKEHTKAETELVKESYRLTAGELGKQQAFEKRLDEIGKLLSSVKDKLDAEHVAYSLLVEEVASIEKQIEEVKKEHAEYRENLQALRKEELQARETLSNLKKTISETARLLKTSNIPGIPSHIQEMLENAHHHIQETVNQLNELPLNMEEAGAHLKQAEDIVNRASRESEELVEQVILIEKIIQFGNRFRSQNHILSEQLKEAERRFYAFDYDDSYEIAAAAVEKAAPGAVEKIKADISA
Consider B2, for which the binding result in “crystal structure” is listed as “binds”. Further, the “stoichiometry N” value in data set [2] is 1 EzrA:FtsZ.
